Assays:
[1] = target: PlcR of B. cereus ATCC 14579 (B. cereus (endogenous in strain ATCC 14579))
[2] = target: PlcR of B. thuringiensis 407 Cry- (B. thuringiensis (endogenous in strain 407 Cry- plcA'Z))
[3] = target: PlcR of B. cereus ATCC 14579 (B. cereus (endogenous in strain ATCC 14579)); remark: listed apart in the source
[4] = target: PlcR of B. thuringiensis 407 Cry- (B. thuringiensis (endogenous in strain 407 Cry- plcA'Z)); remark: listed apart in the source
[5] = target: PlcR of B. cereus ATCC 14579 (B. cereus (endogenous in strain ATCC 14579)); remark: listed apart in the source
[6] = target: PlcR of B. thuringiensis 407 Cry- (B. thuringiensis (endogenous in strain 407 Cry- plcA'Z)); remark: listed apart in the source

| Substance | IC50 of inhibition of the hemolytic activity (human red blood cells) of supernatants of treated B. cereus ATCC 14579 cultures; the pair that is blocked: native PapR with PlcR [1] | reduction of plcA'Z (β-galactosidase) activity in Bt A'Z cells, 2.5 μM peptide added at late-exponential phase; the pair that is blocked: endogenous PapR with PlcR [2] | also measured |
| --- | --- | --- | --- |
| PapR7-P4A (peptide) | 4390 nM |  |  |
| PapR7-P4A:F7A (peptide) |  | 40% | reduction of the hemolytic activity (human red blood cells) of supernatants of B. cereus ATCC 14579 cultures treated with 10 μM peptide; the pair that is blocked: native PapR with PlcR [3]: 60% |
| PapR7-P4A:dE6 (peptide) |  | 40% |  |
| PapR7-P4A:dE6:F7A (peptide) | 1990 nM | 40% | reduction of plcA'Z (β-galactosidase) activity in Bt A'Z cells, 10 μM peptide added at end of lag phase (OD600 0.1); the pair that is blocked: endogenous PapR with PlcR [4]: 75% |
| PapR7-P4A:dE6:dF7 (peptide) | 2140 nM | 40% | reduction of plcA'Z (β-galactosidase) activity in Bt A'Z cells, 10 μM peptide added at end of lag phase (OD600 0.1); the pair that is blocked: endogenous PapR with PlcR [4]: 75% |
| PapR7-P4A:dF7 (peptide) |  | 40% | inhibition of the hemolytic activity (human red blood cells) of supernatants of B. cereus ATCC 14579 cultures treated with 10 μM peptide; the pair that is blocked: native PapR with PlcR [5]: 83% |
| PapR7-dE6 (peptide) | 1050 nM | 65% | IC50 of inhibition of plcA'Z (β-galactosidase) activity in Bt A'Z cells, lacZ-based reporter assay; the pair that is blocked: endogenous PapR with PlcR [6]: 977 nM |
| PapR7-dE6:F7A (peptide) | 2500 nM | 65% | IC50 of inhibition of plcA'Z (β-galactosidase) activity in Bt A'Z cells, lacZ-based reporter assay, late-exponential phase; the pair that is blocked: endogenous PapR with PlcR [6]: 2570 nM |
| PapR7-dE6:dF7 (peptide) | 1380 nM | 71% | IC50 of inhibition of plcA'Z (β-galactosidase) activity in Bt A'Z cells, lacZ-based reporter assay, late-exponential phase; the pair that is blocked: endogenous PapR with PlcR [6]: 1680 nM |
| PapR7-dF7 (peptide) | 3040 nM | 63% | IC50 of inhibition of plcA'Z (β-galactosidase) activity in Bt A'Z cells, lacZ-based reporter assay; the pair that is blocked: endogenous PapR with PlcR [6]: 1220 nM |
